The term Km denotes the concentration of substrate that gives half-maximal velocity. In general, Vmax refers to the rate approached at saturating substrate.

One data set has as its target T1, HypD (Escherichia coli, UniProt P24192, C41A).
T1 construct: Strep-tagged HypD (plasmid pIBA5hypDWT), [4Fe-4S] protein, overproduced and anaerobically purified from E. coli BEF314 (delta hypB-E)
Description: HPLC (ZIC-HILIC) ADP formation, specific activity. It is filed as biochemical. The conditions noted are these: 50 mM HEPES, 2 mM MgCl2, pH 7.4, 37 °C, 500 μM ATP; protein alone.

Substrate in data set [1]: Nc1ncnc2c1ncn2[C@@H]1O[C@H](COP(=O)(O)OP(=O)(O)OP(=O)(O)O)[C@@H](O)[C@H]1O
As to the kind of experiment: HPLC (ZIC-HILIC) ADP formation, Michaelis-Menten fit. It is filed as biochemical, Escherichia coli. Particulars: 50 mM HEPES, 2 mM MgCl2, pH 7.4, 37 °C, protein alone. An excerpt:
HPLC (ZIC-HILIC) ADP formation, Michaelis-Menten fit on HypC

Substrate in data set [2]: Nc1ncnc2c1ncn2[C@@H]1O[C@H](COP(=O)(O)OP(=O)(O)OP(=O)(O)O)[C@@H](O)[C@H]1O
The data set is described as above. It is filed as biochemical, Escherichia coli. The conditions noted are these: 50 mM HEPES, 2 mM MgCl2, pH 7.4, 37 °C, as-isolated complex. An excerpt: HPLC (ZIC-HILIC) ADP formation, Michaelis-Menten fit on HypC-HypD complex

Substrate in data set [3]: Nc1ncnc2c1ncn2[C@@H]1O[C@H](COP(=O)(O)OP(=O)(O)OP(=O)(O)O)[C@@H](O)[C@H]1O
Described as above. In kind it is biochemical, Escherichia coli. The conditions noted are these: 50 mM HEPES, 2 mM MgCl2, pH 7.4, 37 °C, protein alone. An excerpt: HPLC (ZIC-HILIC) ADP formation, Michaelis-Menten fit on HypD
This is another data set of the same source.

Substrate in data set [4]: Nc1ncnc2c1ncn2[C@@H]1O[C@H](COP(=O)(O)OP(=O)(O)OP(=O)(O)O)[C@@H](O)[C@H]1O
The data set is described as above. In kind it is biochemical, Escherichia coli. The conditions noted are these: 50 mM HEPES, 2 mM MgCl2, pH 7.4, 37 °C, as-isolated complex. An excerpt: HPLC (ZIC-HILIC) ADP formation, Michaelis-Menten fit on HybG-HypD complex
This is another data set of the same source.

Substrate in data set [5]: Nc1ncnc2c1ncn2[C@@H]1O[C@H](COP(=O)(O)OP(=O)(O)OP(=O)(O)O)[C@@H](O)[C@H]1O
The description is as above. In kind it is biochemical, Escherichia coli. The conditions noted are these: 50 mM HEPES, 2 mM MgCl2, pH 7.4, 37 °C, protein alone. An excerpt: HPLC (ZIC-HILIC) ADP formation, Michaelis-Menten fit on HybG
This is another data set of the same source.

T1 sequence (P24192 whole entry C41A): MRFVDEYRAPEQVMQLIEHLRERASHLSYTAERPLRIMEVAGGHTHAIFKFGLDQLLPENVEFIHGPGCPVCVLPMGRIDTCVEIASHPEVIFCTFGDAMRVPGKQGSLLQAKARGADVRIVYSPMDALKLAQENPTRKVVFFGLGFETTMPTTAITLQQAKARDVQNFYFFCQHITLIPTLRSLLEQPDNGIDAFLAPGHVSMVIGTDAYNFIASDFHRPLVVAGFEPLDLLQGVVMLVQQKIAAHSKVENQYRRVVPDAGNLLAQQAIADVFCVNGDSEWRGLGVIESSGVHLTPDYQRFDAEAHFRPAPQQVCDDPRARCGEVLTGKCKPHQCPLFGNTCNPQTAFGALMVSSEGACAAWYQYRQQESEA

In the case of `Nc1ncnc2c1ncn2[C@@H]1O[C@H](COP(=O)(O)OP(=O)(O)OP(=O)(O)O)[C@@H](O)[C@H]1O` [ATP], on HypD, the “HPLC (ZIC-HILIC) ADP formation, specific activity” value was “The HypDC41A variant on its own had an ATPase activity”.

B1: HypC (Escherichia coli K-12) (protein)
chain: CIGVPGQIRTIDGNQAKVDVCGIQRDVDLTLVGSCDENGQPRVGQWVLVHVGFAMSVINEAEARDTLDALQNMFDVEPDVGALLYGEEK
notes: Strep-tagged HypC (plasmid pIBA3hypCStrep), anaerobically purified from E. coli BEF314 (delta hypB-E)
Turning to B1, in data set [1], the Km came out at 235.72 ± 71.15 µM and the Vmax stood at 0.234 µmol/min/mg.

B2: HypC-HypD complex (Escherichia coli K-12) (protein)
chain 1: MRFVDEYRAPEQVMQLIEHLRERASHLSYTAERPLRIMEVCGGHTHAIFKFGLDQLLPENVEFIHGPGCPVCVLPMGRIDTCVEIASHPEVIFCTFGDAMRVPGKQGSLLQAKARGADVRIVYSPMDALKLAQENPTRKVVFFGLGFETTMPTTAITLQQAKARDVQNFYFFCQHITLIPTLRSLLEQPDNGIDAFLAPGHVSMVIGTDAYNFIASDFHRPLVVAGFEPLDLLQGVVMLVQQKIAAHSKVENQYRRVVPDAGNLLAQQAIADVFCVNGDSEWRGLGVIESSGVHLTPDYQRFDAEAHFRPAPQQVCDDPRARCGEVLTGKCKPHQCPLFGNTCNPQTAFGALMVSSEGACAAWYQYRQQESEA
chain 2: CIGVPGQIRTIDGNQAKVDVCGIQRDVDLTLVGSCDENGQPRVGQWVLVHVGFAMSVINEAEARDTLDALQNMFDVEPDVGALLYGEEK
notes: heterodimer, HypC Strep-tagged (pT7-7hypD-hypCStrep), anaerobically co-purified from E. coli MC4100 or BEF314
Regarding B2, in data set [2], the Km was 143.48 ± 55.10 µM and the Vmax was 0.995 µmol/min/mg.

B3: HypD (Escherichia coli K-12) (protein)
chain: MRFVDEYRAPEQVMQLIEHLRERASHLSYTAERPLRIMEVCGGHTHAIFKFGLDQLLPENVEFIHGPGCPVCVLPMGRIDTCVEIASHPEVIFCTFGDAMRVPGKQGSLLQAKARGADVRIVYSPMDALKLAQENPTRKVVFFGLGFETTMPTTAITLQQAKARDVQNFYFFCQHITLIPTLRSLLEQPDNGIDAFLAPGHVSMVIGTDAYNFIASDFHRPLVVAGFEPLDLLQGVVMLVQQKIAAHSKVENQYRRVVPDAGNLLAQQAIADVFCVNGDSEWRGLGVIESSGVHLTPDYQRFDAEAHFRPAPQQVCDDPRARCGEVLTGKCKPHQCPLFGNTCNPQTAFGALMVSSEGACAAWYQYRQQESEA
notes: Strep-tagged HypD (plasmid pIBA5hypDWT), [4Fe-4S] protein, overproduced and anaerobically purified from E. coli BEF314 (delta hypB-E)
For B3, in data set [3], the Km was found to be 364.48 ± 100.16 µM and the Vmax came out at 0.398 µmol/min/mg.

B4: HybG-HypD complex (Escherichia coli K-12) (protein)
chain 1: MRFVDEYRAPEQVMQLIEHLRERASHLSYTAERPLRIMEVCGGHTHAIFKFGLDQLLPENVEFIHGPGCPVCVLPMGRIDTCVEIASHPEVIFCTFGDAMRVPGKQGSLLQAKARGADVRIVYSPMDALKLAQENPTRKVVFFGLGFETTMPTTAITLQQAKARDVQNFYFFCQHITLIPTLRSLLEQPDNGIDAFLAPGHVSMVIGTDAYNFIASDFHRPLVVAGFEPLDLLQGVVMLVQQKIAAHSKVENQYRRVVPDAGNLLAQQAIADVFCVNGDSEWRGLGVIESSGVHLTPDYQRFDAEAHFRPAPQQVCDDPRARCGEVLTGKCKPHQCPLFGNTCNPQTAFGALMVSSEGACAAWYQYRQQESEA
chain 2: MCIGVPGQVLAVGEDIHQLAQVEVCGIKRDVNIALICEGNPADLLGQWVLVHVGFAMSIIDEDEAKATLDALRQMDYDITSA
notes: heterodimer, HybG Strep-tagged (hypDEFhybGStrep plasmid), anaerobically co-purified from E. coli MC4100; small amounts of HypE occasionally co-purify
Take B4: in data set [4], the Km was 34.78 ± 8.77 µM and the Vmax was found to be 1.42 µmol/min/mg.

B5: HybG (Escherichia coli K-12) (protein)
chain: MCIGVPGQVLAVGEDIHQLAQVEVCGIKRDVNIALICEGNPADLLGQWVLVHVGFAMSIIDEDEAKATLDALRQMDYDITSA
notes: Strep-tagged HybG (plasmid pIBA3hybGWT), anaerobically purified from E. coli BEF314 (delta hypB-E)
Regarding B5, in data set [5], the Km is 475.67 ± 29.91 µM and the Vmax is 0.56 µmol/min/mg.

(Values after paper PMC6886295, “The iron–sulfur‐containing HypC‐HypD scaffold complex of the [NiFe]‐hydrogenase maturation machinery is an ATPase” (FEBS Open Bio, 2019).)
